Patent US8784824B2, “Compositions and methods for treatment of angiogenesis in pathological lesions” (Philogen S.p.A., priority 2000, dated 2014)
Values belong to the compound of their own block, whether it stands above or below them.

What was measured:
[1] = tested on: C51 murine carcinoma cell line; assay: Crystal violet cytotoxicity assay; type: cell-based; conditions: Mus musculus; C51 cells; crystal violet staining (FIG. 9); read-out: 50% inhibitory concentrations towards C51 cells
Protocol: C51 murine adenocarcinoma cells were seeded in 24-well plates at a density between […] per well. The plates were incubated overnight at 37° C. in humidified, 5% CO2 atmosphere to ensure the growth of the monolayer. The medium was then removed and different concentrations of doxorubicin was added. Relative cell numbers in treated and control plates were determined by crystal violet staining. Quantification is possible by solubilising the absorbed dye in ethanol 70% and determining optical density at 590 nm where absorbance is directly proportional to cell number. Relative cell number can be expressed as T/C=T−C0/C−C0×100 [T=absorbance of treated cultures, C=absorbance of control cultures, and C0=absorbance of cultures at the start of incubation (t=0)]. The results of this study are depicted in FIG. 9.

[2] = intravenously injected; cited from earlier work
[3] = biological target: recombinant human fibronectin fragment 7B89 (human) (UniProt P02751); assay: 125I-labelled protein on a 7B89/Sepharose column
[4] = tested on: blood vessels of glioblastoma tumor; assay: Immunohistochemistry on glioblastoma tumor
Protocol: (§1) Tumor and organ specimens were processed for microautoradiography to assess the pattern of ^125I-L19-IL2 fusion protein distribution within the tumors or organs as described by Tarli et al. 1999 (12). Immunohistochemical procedures were carried out as reported by Castellani et al. 1994 (11). The nonparametric Mann-Whitney test was used to assess the differences in tumor weights between the three different groups of animals (mice treated with L19-IL2 fusion protein, with mixture of L19+IL2 and PBS).
(§2) Tumor and organ specimens were processed for microautoradiography to assess the pattern of ^125I-L19TNFα fusion protein distribution within the tumors or organs as described by Tarli et al (Blood, 94: 192-198, 1999). Immunohistochemical procedures were carried out as reported by Castellani et al (Int. J. Cancer, 59: 612-618, 1994).

[5] = tested on: blood vessels of the F9 mouse tumor; assay: Microautoradiography of tumors and organs of F9 tumor-bearing mice; type: in vivo
Protocol: as §1, §2

[6] = tested on: subcutaneously implanted F9 murine teratocarcinoma; assay: Biodistribution of radiolabeled L19-mTNFα fusion protein in tumor-bearing mice; type: in vivo, mouse; conditions: F9 tumor-bearing 129 mice
Protocol: (§3) Purified L19-mTNFα was radiolabeled with iodine-125 using the Iodogen method (Salacinski et al., Anal. Biochem., 117: 136, 1981)(Pierce, Rockford, Ill.). After labelling, the immunoreactivity was more than 90%. 129 mice with subcutaneously implanted F9 murine teratocarcinoma were intravenously injected with 4 μg (2 μCi) of protein in 100 μl saline solution. Three animals were used for each time point. Mice were sacrificed at 3, 6, 24 and 48 hours after injection. The organs were weighed and the radioactivity was counted. All organs and tumors were placed in fixative for histological analysis and microautoradiography. Targeting results of representative organs are expressed as percent of the injected dose per gram of tissue (% ID/g).

[7] = tested on: C51 murine colon carcinoma; assay: In vivo treatment with L19-mTNFα fusion protein; set-up: species or system mouse
Protocol: Treatment with purified L19-mTNFα fusion protein was preformed in groups of 3 Balb.C mice each injected subcutaneously with 10^6 of C51 cells. At day 12 after C51 cell injection, 0.8 μg/g of L19-TNFα fusion protein was injected into the tail vein of each animal. A similar group of 3 animals was injected with Phosphate Saline Buffer, pH 7.4 (PBS). The animals were followed for systemic toxicity (weight loss) and tumor growth daily for 6 days. At the end, animals were sacrificed and tumors were placed in fixative for histological analysis and snap frozen for immunohistochemical analysis.
The efficacy of the L19-mTNFα fusion protein in suppressing tumor growth was tested on one experimental tumor model of mouse adenocarcinoma, C51. For tumor induction, 10^6 C51 cells were injected subcutaneously in Balb/C animals. After 12 days (when the tumor reaches approximately 100-200 mm^3) animals received intravenous injections of either PBS (3 animals) or L19-mTNFα fusion protein (3 animals). The animals were monitored for weight and tumor growth daily for 6 days. […] The weight loss was always less than 6% throughout the experiment time.

[8] = biological target: ED-B domain of fibronectin (Homo sapiens, UniProt P02751); assay: Immunoreactivity of L19-mTNFα after radiolabelling; type: binding; set-up: recombinant ED-B domain of human Fibronectin (FN) as antigen; made in house; conditions: iodine-125, Iodogen method
Protocol: as §3

Chain of recombinant human fibronectin fragment 7B89 (human) (P02751 1173-1537 limits assumed): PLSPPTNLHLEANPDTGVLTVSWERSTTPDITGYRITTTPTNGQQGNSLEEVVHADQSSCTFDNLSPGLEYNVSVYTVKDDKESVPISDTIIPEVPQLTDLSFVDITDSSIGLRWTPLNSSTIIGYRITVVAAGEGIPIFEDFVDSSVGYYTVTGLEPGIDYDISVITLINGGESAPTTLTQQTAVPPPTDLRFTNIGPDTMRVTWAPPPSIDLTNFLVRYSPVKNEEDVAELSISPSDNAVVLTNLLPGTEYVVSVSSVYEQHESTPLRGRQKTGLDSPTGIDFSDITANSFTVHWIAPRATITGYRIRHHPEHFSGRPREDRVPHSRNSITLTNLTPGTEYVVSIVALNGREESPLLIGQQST
Chain of ED-B domain of fibronectin (P02751 1271-1359 limits assumed): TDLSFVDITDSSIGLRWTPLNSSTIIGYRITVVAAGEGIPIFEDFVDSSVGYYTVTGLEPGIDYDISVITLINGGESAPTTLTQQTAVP

Compound: COc1cccc2c1C(=O)c1c(O)c3c(c(O)c1C2=O)C[C@@](O)(C(=O)CO)C[C@@H]3O[C@H]1C[C@H](N)[C@H](O)[C@H](C)O1 [doxorubicin, Doxorubicin]
IC50 [1]: ~100 nM
maximal tolerated dose [2]: 8 mg/kg

immunoreactive fraction [3]: > 90%
Compound: L19-IL2 fusion protein (from UniProt P60568 21-153)

immunoreactivity after labelling [8]: more than 90%
Compound: L19-mTNFα fusion protein: fusion of mouse TNFα to the scFv L19 via a 15 amino acid linker
immunohistochemical staining of blood vessels [4]: strongly stain blood vessels of glioblastoma tumor
accumulation of radiolabeled fusion protein in tumor blood vessels ([5]; F9 mouse tumor, microradiographic analysis): Accumulation of the radiolabeled fusion protein was shown
accumulation of radiolabeled fusion protein in vessels of other organs ([5]; organs of F9 tumor bearing mice): No accumulation
% ID/g Bladder ([6]; 3 h after i.v. injection): 37.52 ± 26.7 % ID/g
% ID/g Blood ([6]; 3 h after i.v. injection): 8.39 ± 5.0 % ID/g
% ID/g Heart ([6]; 3 h after i.v. injection): 2.69 ± 0.7 % ID/g
% ID/g Kidney ([6]; 3 h after i.v. injection): 7.96 ± 3.0 % ID/g
% ID/g Liver ([6]; 3 h after i.v. injection): 8.42 ± 1.9 % ID/g
% ID/g Lung ([6]; 3 h after i.v. injection): 6.56 ± 1.7 % ID/g
% ID/g Muscle ([6]; 3 h after i.v. injection): 1.33 ± 0.3 % ID/g
% ID/g Skin ([6]; 3 h after i.v. injection): 2.83 ± 1.3 % ID/g
% ID/g Spleen ([6]; 3 h after i.v. injection): 9.08 ± 2.0 % ID/g
% ID/g Thyroid ([6]; 3 h after i.v. injection): 3.21 ± 0.8 % ID/g
% ID/g Tumor ([6]; 3 h after i.v. injection): 22 % ID/g
% ID/g Tumor ([6]; 3 h after i.v. injection, listed as L19-TNFa fusion protein): 22.02 ± 2.3 % ID/g
% ID/g Bladder ([6]; 6 h after i.v. injection): 18.14 ± 9.1 % ID/g
% ID/g Blood ([6]; 6 h after i.v. injection): 2.13 ± 0.9 % ID/g
% ID/g Heart ([6]; 6 h after i.v. injection): 1.32 ± 0.5 % ID/g
% ID/g Kidney ([6]; 6 h after i.v. injection): 6.06 ± 5.2 % ID/g
% ID/g Liver ([6]; 6 h after i.v. injection): 2.39 ± 0.9 % ID/g
% ID/g Lung ([6]; 6 h after i.v. injection): 2.79 ± 1.4 % ID/g
% ID/g Muscle ([6]; 6 h after i.v. injection): 0.76 ± 0.2 % ID/g
% ID/g Skin ([6]; 6 h after i.v. injection): 1.68 ± 0.9 % ID/g
% ID/g Spleen ([6]; 6 h after i.v. injection): 3.29 ± 0.9 % ID/g
% ID/g Thyroid ([6]; 6 h after i.v. injection): 2.91 ± 1.8 % ID/g
% ID/g Tumor ([6]; 6 h after i.v. injection): 11.57 ± 2.7 % ID/g
% ID/g Bladder ([6]; 24 h after i.v. injection): 2.9 ± 2.2 % ID/g
% ID/g Blood ([6]; 24 h after i.v. injection): 0.09 ± 0.0 % ID/g
% ID/g Heart ([6]; 24 h after i.v. injection): 0.06 ± 0.0 % ID/g
% ID/g Kidney ([6]; 24 h after i.v. injection): 0.18 ± 0.0 % ID/g
% ID/g Liver ([6]; 24 h after i.v. injection): 0.15 ± 0.0 % ID/g
% ID/g Lung ([6]; 24 h after i.v. injection): 0.18 ± 0.1 % ID/g
% ID/g Muscle ([6]; 24 h after i.v. injection): 0.05 ± 0.0 % ID/g
% ID/g Skin ([6]; 24 h after i.v. injection): 0.03 ± 0.0 % ID/g
% ID/g Spleen ([6]; 24 h after i.v. injection): 0.13 ± 0.0 % ID/g
% ID/g Thyroid ([6]; 24 h after i.v. injection): 1.93 ± 0.5 % ID/g
% ID/g Tumor ([6]; 24 h after i.v. injection): 9.77 ± 1.4 % ID/g
% ID/g Bladder ([6]; 48 h after i.v. injection): 0.08 ± 0.0 % ID/g
% ID/g Blood ([6]; 48 h after i.v. injection): 0.01 ± 0.0 % ID/g
% ID/g Heart ([6]; 48 h after i.v. injection): 0.01 ± 0.0 % ID/g
% ID/g Kidney ([6]; 48 h after i.v. injection): 0.05 ± 0.0 % ID/g
% ID/g Liver ([6]; 48 h after i.v. injection): 0.02 ± 0.0 % ID/g
% ID/g Lung ([6]; 48 h after i.v. injection): 0.02 ± 0.0 % ID/g
% ID/g Muscle ([6]; 48 h after i.v. injection): 0.0 ± 0.0 % ID/g
% ID/g Skin ([6]; 48 h after i.v. injection): 0.01 ± 0.0 % ID/g
% ID/g Spleen ([6]; 48 h after i.v. injection): 0.01 ± 0.0 % ID/g
% ID/g Thyroid ([6]; 48 h after i.v. injection): 0.0 ± 0.0 % ID/g
% ID/g Tumor ([6]; 48 h after i.v. injection): more than 9 % ID/g
% ID/g Tumor ([6]; 48 h after i.v. injection, listed as L19-TNFa fusion protein): 9.55 ± 1.7 % ID/g
tumor growth with respect to animals injected with PBS ([7]; 0.8 μg/g i.v. at day 12, followed 6 days (FIG. 23)): decrease in tumor growth
weight loss ([7]; throughout the experiment time (6 days)): less than 6%
